Source: patent US20230285583A1, “LIQUID FORMULATION OF LONG-ACTING CONJUGATE OF GLUCAGON, GLP-1, AND GIP TRIGONAL AGONIST” (HANMI PHARM, CO., LTD., priority 2020, published 2023)
Bridge positions count the residues as written; N and C are the ends. Square brackets hold non-standard residues; d marks the D form. Ends that are not written are not given here. * marks the point of attachment. Acetyl(2-(4-imidazolyl)) = O=C(Cc1c[nH]cn1)*; Aib = CC(C)(N)C(=O)O

T1: human GIP receptor (human, UniProt P48546 22-466)
T1 sequence (looked up): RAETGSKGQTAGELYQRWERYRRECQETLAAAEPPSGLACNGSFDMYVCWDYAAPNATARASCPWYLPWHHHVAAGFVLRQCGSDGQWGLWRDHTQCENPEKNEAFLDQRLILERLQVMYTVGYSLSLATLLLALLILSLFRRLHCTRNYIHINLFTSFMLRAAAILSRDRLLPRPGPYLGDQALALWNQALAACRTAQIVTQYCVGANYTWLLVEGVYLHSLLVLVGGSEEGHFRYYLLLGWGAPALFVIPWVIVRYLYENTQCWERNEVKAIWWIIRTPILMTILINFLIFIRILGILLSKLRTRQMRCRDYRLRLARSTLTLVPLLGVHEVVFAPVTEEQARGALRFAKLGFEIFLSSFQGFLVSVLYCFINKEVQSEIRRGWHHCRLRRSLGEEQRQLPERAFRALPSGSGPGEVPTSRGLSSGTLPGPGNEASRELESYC


Assays:
Test in all cases: cell-based or functional assay
[1] = target: human GCG receptor (human, UniProt P47871 26-477)
Chain of human GCG receptor (P47871 26-477): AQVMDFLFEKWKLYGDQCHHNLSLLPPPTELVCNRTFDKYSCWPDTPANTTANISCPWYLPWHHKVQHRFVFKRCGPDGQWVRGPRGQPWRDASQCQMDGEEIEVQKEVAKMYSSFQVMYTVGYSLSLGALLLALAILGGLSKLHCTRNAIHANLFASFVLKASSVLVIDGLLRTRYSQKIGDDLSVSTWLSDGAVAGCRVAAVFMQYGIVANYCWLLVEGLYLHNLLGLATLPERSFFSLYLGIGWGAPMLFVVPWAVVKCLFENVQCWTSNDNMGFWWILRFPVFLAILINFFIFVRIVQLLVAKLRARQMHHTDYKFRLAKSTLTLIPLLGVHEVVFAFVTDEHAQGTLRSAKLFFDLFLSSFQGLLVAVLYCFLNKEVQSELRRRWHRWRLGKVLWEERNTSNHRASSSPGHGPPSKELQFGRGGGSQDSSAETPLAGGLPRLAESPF

[2] = target: human GLP-1 receptor (human, UniProt P43220 24-463)
[3] = target: T1, human GIP receptor

Binder | In Vitro Activity Compared to Native Peptide (%) vs. Glucagon (relative titer from cAMP EC50) [1] [%] | In Vitro Activity Compared to Native Peptide (%) vs. GLP-1 (relative titer from cAMP EC50) [2] [%] | In Vitro Activity Compared to Native Peptide (%) vs. GIP (relative titer from cAMP EC50) [3] [%]
H[Aib]EGTFTSDYSIAMDEIHQKDFVNWLLAQKC (lactam 16-20) [trigonal agonist of SEQ ID NO: 34] | 4.9 | 41.5 | 1.4
{Acetyl(2-(4-imidazolyl))}-[Aib]EGTFTSDYSIAMDEIHQKDFVNWLLAQC (lactam 15-19) [trigonal agonist of SEQ ID NO: 36] | 1.3 | 47.3 | 0.4
H[Aib]QGTFTSDYSKYLCEKRQKEFVQWLLNGGPSSGAPPPSG (bridge 16-20; not fully specified (bridges)) [trigonal agonist of SEQ ID NO: 7] | 0.39 | 37.4 | 0.2
Y[Aib]QGTFTSDYSKYLDEKRAKEFVQWLLDHCPSSGQPPPS (bridge 16-20; not fully specified (bridges); ends not checked) [trigonal agonist of SEQ ID NO: 40] | 195 | 34.4 | 5.2
Y[Aib]QGTFTSDYSKALDEKAAKEFVQWLLDQHPSSGQPPPSC (bridge 16-20; not fully specified (bridges)) [trigonal agonist of SEQ ID NO: 44] | 12.7 | 42.2 | 118
H[Aib]QGTFTSDYSKYLDEKRQKEFVNWLLAQKC (bridge 16-20; not fully specified (bridges)) [trigonal agonist of SEQ ID NO: 6] | 0.92 | 19.1 | 0.6
[Acetyl(2-(4-imidazolyl))][Aib]EGTFTSDYSIAMDEIHQKDFVDWLLAEKC (bridge 16-20; not fully specified (bridges)) [trigonal agonist of SEQ ID NO: 38] | 16.8 | 31.9 | 0.3
Y[Aib]QGTFTSDYSKYLDEKRAKEFVQWLLDHHCSSGQPPPS (bridge 16-20; not fully specified (bridges)) [trigonal agonist of SEQ ID NO: 10] | 88.4 | 12.6 | 3.7
[Acetyl(2-(4-imidazolyl))][Aib]QGTFTSDYSKYLDEKRQKEFVNWLLAQC (bridge 16-20; not fully specified (bridges)) [trigonal agonist of SEQ ID NO: 37] | 0.4 | 28.4 | 0.2
Y[Aib]QGTFTSDYSKYLDECRAKEFVQWLLDHHPSSGQPPPS (bridge 16-20; not fully specified (bridges)) [trigonal agonist of SEQ ID NO: 1] | 267 | 17.8 | 22.7
Y[Aib]QGTFTSDYSKALDEKAAKDFVNWLLDHHPSSGQPPPSC (bridge 16-20; not fully specified (bridges)) [trigonal agonist of SEQ ID NO: 43] | 14.9 | 20.9 | 57.7
H[Aib]EGTFTSDYSIAMDEIHQKDFVDWLLAEKC (bridge 16-20; not fully specified (bridges)) [trigonal agonist of SEQ ID NO: 35] | 0 | 8.1 | 0.1
Y[Aib]QGTFTSDYSKALDEKAAKEFVNWLLDHHPSSGQPPPSC (bridge 16-20; not fully specified (bridges)) [trigonal agonist of SEQ ID NO: 42] | 8.2 | 28.1 | 47.1
H[Aib]QGTFTSDYSKYLDECRQKEFVQWLLNGGPSSGAPPPSG (bridge 16-20; not fully specified (bridges)) [trigonal agonist of SEQ ID NO: 8] | 6.21 | 236 | 2.2
Y[Aib]QGTFTSDYSKALDEKAAKEFVNWLLDQHPSSGQPPPSC (bridge 16-20; not fully specified (bridges)) [trigonal agonist of SEQ ID NO: 45] | 13.9 | 23.2 | 40.1
Y[Aib]QGTFTSDYSKALDEKAAKDFVNWLLDQHPSSGQPPPSC (bridge 16-20; not fully specified (bridges)) [trigonal agonist of SEQ ID NO: 46] | 29.5 | 23.3 | 58
H[Aib]QGTFTSDYSKYLDEKACKEFVQWLLAQ (bridge 16-20; not fully specified (bridges)) [trigonal agonist of SEQ ID NO: 4] | 2.2 | 135 | 2.4
[Acetyl(2-(4-imidazolyl))][Aib]QGTFTSDYSKYLDEKRQKEFVNWLLAQKC (bridge 16-20; not fully specified (bridges)) [trigonal agonist of SEQ ID NO: 39] | 0.3 | 5.7 | 0.7
Y[Aib]QGTFTSDYSKYLDEKRAKEFVQWLLDCHPSSGQPPPS (bridge 16-20; not fully specified (bridges); ends not checked) [trigonal agonist of SEQ ID NO: 41] | 62.8 | 10.5 | 2.6
H[Aib]QGTFTSDYSKYLDEKACKDFVQWLLDGGPSSGAPPPS (lactam 16-20) [trigonal agonist of SEQ ID NO: 5] | 1.7 | 151 | 8.8
Y[Aib]QGTFTSDYSKYLDEKRAKEFVQWLLDHHPSSGQPPPSC (lactam 16-20) [trigonal agonist of SEQ ID NO: 9] | 206 | 33.9 | 7.8
H[Aib]QGTFTSDYSKYLDEKRAKEFVQWLLDHHPSSGQPPPSC (bridge 16-20; not fully specified (bridges)) [trigonal agonist of SEQ ID NO: 11] | 50.5 | 67.4 | 2.7
H[Aib]QGTFTSDYSKYLDEKRQKEFVQWLLNTC (bridge 16-20; not fully specified (bridges)) [trigonal agonist of SEQ ID NO: 12] | 2 | 14.4 | 0.1
